Assay results as given in patent publication US20230287080A1 (published 2023).

T1: NY-ESO-1 peptide on HLA-A*02:01 (human)
T1 peptide: SLLMWITQC


Assays:
[1] = molecular target: T1, NY-ESO-1 peptide on HLA-A*02:01; experiment: multimer staining
[2] = molecular target: T1, NY-ESO-1 peptide on HLA-A*02:01; experiment: activation reporter or marker
Experimental: NY7 variant TCRs isolated by the work flow above were then functionally tested for potency and specificity. TCRs were expressed in Jurkat cells using a lentivirus vector, and TCR-expressing Jurkat cells were co-cultured with T2 cells and a varying dose of the NY-ESO-1 peptide. Activation was measured by luminescence using an NFAT-Luciferase reporter.

| binding result [1] | binding result [2] | Binder |
| --- | --- | --- |
| recognises |  | NY7JSY (TCR, V domains shown) Valpha: QKEVEQNSGPLSVPEGAIASLNCTYSDRGSQSFFWYRQYSGKSPELIMFIYSNGDKEDGRFTAQLNKASQYVSLLIRDSQPSDSATYLCAVMRAGGFKTIFGAGTRLFVKA Vbeta: DSGVTQTPKHLITATGQRVTLRCSPRSGDLSVYWYQQSLDQGLQFLIQYYNGEERAKGNILERFSAQQFPDLHSELNLSSLELGDSALYFCASSVVDGEQYFGPGTRLTVT |
|  | recognises | NY7 variant, Table A TCR ID 5 (TCR, V domains shown) Valpha: QKEVEQNSGPLSVPEGAIASLNCTYSDRWSQSFFWYRQYSGKSPELIMFIYSNGDKEDGRFTAQLNKASQYVSLLIRDSQPSDSATYLCAVMRAGGFKTIFGAGTRLFVKA Vbeta: DSGVTQTPKHLITATGQRVTLRCSPRSGDLSVYWYQQSLDQGLQFLIQYYNGEERAKGNILERFSAQQFPDLHSELNLSSLELGDSALYFCASSVVDGEQYFGPGTRLTVT |
